From the nanobody polyreactivity screen of Harvey et al. (2022)

Test: yeast display, Sf9 membrane polyspecificity reagent, FACS + sequencing; frameworks hold sequencing errors
Method in brief: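 Synthetic nanobody libraries on Saccharomyces cerevisiae BJ5465 were galactose-induced for 36–48 hours, stained 1 hour at 4 °C with 10% biotinylated, detergent-solubilized Sf9 membrane reagent and enriched on streptavidin microbeads. FACS then separated cells into low and high (top ~1%) gates by anti-HA (expression) and streptavidin (reagent binding) fluorescence. Genes were colony-PCR amplified, MiSeq 2 × 250 sequenced and CDR-length filtered. A clone's polyreactivity label is that of its gate of origin.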

Sequence	polyreactivity (PSR sort gate)
QVQLVESGGGLVQAGGSLRLSCAASGYTFNYYAMGWSRQAPGKEREFVASTYADSVKGRFTISRDNAKNTVYLQMNSLKPEDTAVYYCAAEGSYPAYDYWGQGTQVTVSS	low polyreactivity
QVQLVESGGGLVQAGGSLRLSCAASGYTFNYYAMGWYRQAPGKERELVAAIRSGGSTTYADSVKGRFTISRDNAKNTVYLQMNSLKPEDTAVYYCNADAGYWYRPAYDYWGQGTQVTVSS	low polyreactivity
QVQLVESGGGLVQAGGSLRLSCAASGYTFPLYAMGWYRQAPGKERELVADINIGGASTYYADSVKGRFTISRDNAKNTFYLQMKSLKPEDTAVYYCAKEYFDGFFPTFYYDYWGQGTQVTVSS	low polyreactivity
QVQLVESGGGLVQAGGSLRLSCAASGYTFPLYAMGWYRQAPGKERELVADINIGGASTYYADSVKGRFTISRDNAKNTVYLQMNSLKPEDTAVYYCAADSRKRQGYGYWGQGTQVTVSS	low polyreactivity
QVQLVESGGGLVQAGGSLRLSCAASGYTFPRYAMGWYRQAPGKERELVAAISRRGGSTYYADSVKGRFTISRDNAKNTVYLQMNSLKPEDTAVYYCAAATRQGYYSGSTRYDYWGQGTQVTVSS	high polyreactivity
QVQLVESGGGLVQAGGSLRLSCAASGYTFPRYTMGWYRQAPGKERELVAAINWSGGSTYYADSVKGRFTISRDNAKNTVYLQMNSLKPEDTAVYYCAAPVFHLYTDRMGYWGQGTQVTVSS	high polyreactivity
QVQLVESGGGLVQAGGSLRLSCAASGYTFPTNAMGWYRQAPGKERELVAAISIDDGITYYADSVKGRFTISRDNAKNTVYLQMNSLKPEDTAVYYCSAEVGIEYEYWGQGTQVTVSS	high polyreactivity
QVQLVESGGGLVQAGGSLRLSCAASGYTFPYYTMGWYRQAPGKERELVAAISSGGRTKYADSVKGRFTISRDNANNSVYVQMNSLKPEDTAVYYCSARSSYSFAFFWPAYNYWGQGTQVTVSS	high polyreactivity
QVQLVESGGGLVQAGGSLRLSCAASGYTFQSYAMAWYRQAPWKERELVAAIRYSGGSTYADSVKGRFTISRDNAKNTVYLQMNSLKPEDTAVYYCAARSNSLLFDYWGQGTQVTVSS	low polyreactivity
QVQLVESGGGLVQAGGSLRLSCAASGYTFRAYAMGWYRPAPGKERELVAAISRRGGSTYYADSVKGRFTISRDNAKNTVYLQMNSLKPEDTAVYYCAADFRSEHAEDYWGQGTQVTVSS	high polyreactivity
QVQLVESGGGLVQAGGSLRLSCAASGYTFRLYAMGWYRQAPVKERELVAAINTSGGRTYYADSVKGRFTISRDNAKNTVYLQMNSLKPEDTAVYYCATDWYWKRADIRPGDYWGQGTQVTVSS	low polyreactivity
QVQLVESGGGLVQAGGSLRLSCAASGYTFRNYAMGWYRQAPGKERELVAAISTRGVSTYYADSVKGRFTISRDNAKNTVYLQMNSLKPEDTADYYCAAAGGRYSRAAYDYWGQGTQVTVSS	low polyreactivity
QVQLVESGGGLVQAGGSLRLSCAASGYTFRQYAMGWYRQAPGKERELVAAIRYSGASTYYADSVKGRFTISRDNAKNTVYLQINSLKPEDTAVYYWNAALRLWGEYIYDYWGQGTQVTVSS	low polyreactivity
QVQLVESGGGLVQAGGSLRLSCAASGYTFRSNTMGWYRQAPGKERELVAAISGRGSSTYYADSVKGRFTISRDNAKNTVYLQMNSLKPEDTAVYYWNAPYNRATYNYWGQGTQVNVSS	high polyreactivity
QVQLVESGGGLVQAGGSLRLSCAASGYTFRSNTMGWYRQAPGKERELVASINQSGGRTYYADSVKGRFTISRDNAKNTVYFQMNSLKPEDTAVYYCATRGYNYYAHNYWGQGTQVTVSS	high polyreactivity
QVQLVESGGGLVQAGGSLRLSCAASGYTFRSYMGWYRQAPGKEREFVADISTSVTNTYYADSVKGRFTISRDNAKNTVYLQMNSLKPEDTAVYYCAAGVQSVYNGEPGIILEFDYWGQGTQVTVSS	low polyreactivity
QVQLVESGGGLVQAGGSLRLSCAASGYTFRTNVMGWYRQAPGKERELVATINWRGGSTYYADSVKGRFTISRDNAKNTVYLQMNSLKPEDTAVYYCAKTYRYYRTMDYWGQGTQVTVSS	low polyreactivity
QVQLVESGGGLVQAGGSLRLSCAASGYTFRWYVMGWYRPAPGKERELVAAISQSGGDTYYADSVKGRFTISRDNAKNTVYLQMNSLKPEDTAVYYCAVGRVGRFYYWGQGTQVTVSS	high polyreactivity
QVQLVESGGGLVQAGGSLRLSCAASGYTFRYNALGWYRQAPGKERELVAAISYSRGSTYYADSVKGRFTISRDYAKYTVYLLMNSLKPEDTAVYYCAAQYLFSGHDYWGQGTQVTVSS	low polyreactivity
QVQLVESGGGLVQAGGSLRLSCAASGYTFRYNTMGWYRQAPGKERELVADISSGVGNTYYADSVKGRFTISRDNAKNTVYLQMNSLKPEDTAVYYCNADYKSSYYWYLWYNYWGHGTQVTVSS	low polyreactivity
QVQLVESGGGLVQAGGSLRLSCAASGYTFRYYAMGSYRQAPGKERELVAAITWSGGSTYYADSVKGRFTISRDNAKNTVYLQMNSLKPEDTAVYFCATDSARVGNFPYPQFDYWGQGTQVTVSS	low polyreactivity
QVQLVESGGGLVQAGGSLRLSCAASGYTFRYYAMGWYRQAPGKERELVAAINWSGGSTYYADSVKGRFTISRDNAKNTVYLQNNSLKPEDTAVYYCAADPDGDLDIDYDYWGLGTQVTVSS	low polyreactivity

Sequence	polyreactivity (PSR sort gate)
QVQLVESGGGLVQAGGSLRLSCAASGYTFRYYAMGWYRQAPGKERELVAVISSGGSTKYADSVKGRFTISRDNAKNTVYLQMNSLKPEDTAVYYCAARYRSLYNYWGQGTQVTVSS	high polyreactivity
QVQLVESGGGLVQAGGSLRLSCAASGYTFSAYAMGCYRQAPGKERELVASITRRRTNYAESVKGRFTISRDNAKNTVYLQMNSLKPEDTAVYYCAATNYVRQYATYDYWGQGTQVTVSS	high polyreactivity
QVQLVESGGGLVQAGGSLRLSCAASGYTFSFYAMGWYRQAPGKERELVATISWRGGSTYYADSVKGRFTISRDNAKNTVYLQMNSLKPEDTAVYYCNIVDKTGSKMDYWGQGTQVTVSS	high polyreactivity
QVQLVESGGGLVQAGGSLRLSCAASGYTFSRYAMGWYRQAPGKERELVAAISSRGGSTYYADSVKGRFTISRDNAKNTVYLQMNSLKPADTAVYYCAADYGVGYGIVGSYYWGQGTQVTVSS	high polyreactivity
QVQLVESGGGLVQAGGSLRLSCAASGYTFSSNVMGWYRQAPGKERELVAAISANGARTYYADSVKGRFTISRDNAKNTVYLQMNSLKPEDTAVYYCAADYRWAGRYYYWGQGTQVTVSS	high polyreactivity
QVQLVESGGGLVQAGGSLRLSCAASGYTFSSYAMGWYRQAPGKERELVAAITIGGGTNYADSVKGRFTISRDNAKNTVYLQMNSLKPEDTAVYYCNRDVALLEHPVPKKEFGYWGQGTQVTVSS	low polyreactivity
QVQLVESGGGLVQAGGSLRLSCAASGYTFSYYAMGWYRQAPGKERELVAAINYSGGRTYYADSVKGRFTISRDNAKHTVYLQMNSLKPEDSAVDYCAARGGFGMDYWGQGTQVTVSS	high polyreactivity
QVQLVESGGGLVQAGGSLRLSCAASGYTFTAYAMGWYRQAPGKERELVAAISKGGGSTYYADSVKGRFTISRDNAKNTVYLQMNSLKPEDTAVYYCAADTYQGVKYYYWGQGTQVTVSS	high polyreactivity
QVQLVESGGGLVQAGGSLRLSCAASGYTFTIYALGWYRQAPGKEMELVASISIDGSTYYADSVKGRFTISRDNAKNTVYLQMNSLKPEDTAVYYCAADYYYYTPGFDYWGQGTQVTVSS	low polyreactivity
QVQLVESGGGLVQAGGSLRLSCAASGYTFTRYAMGWYRQAPGKEREFVAAITSGGGSTYYADSVKGRFTISRDNAKNTVYLQMNSLKPEDTAVYYCAATRLVSYHYPDLDSQQGGYWGQGTQVTVSS	low polyreactivity
QVQLVESGGGLVQAGGSLRLSCAASGYTFVGYAMGWYRQAPGKERELVASISTGDSTYYADSVKGRFTISRDNAKNTVYLQMNSLKPEDTAVYYCAADSWYFRGMDYWGQGTQVTVSS	low polyreactivity
QVQLVESGGGLVQAGGSLRLSCAASGYTFVIYAMGSYRQAPGKERELVAAITTIGGRTYYADSVKGRFTISRDNAKNNVYLQMNSLKPEDTAVYYCAADIRSNRLYDGGYWGEGTQVTVSS	low polyreactivity
QVQLVESGGGLVQAGGSLRLSCAASGYTFVLNAMGWYRQAPGKEREFFAAITWSGGSTYYADSVKGRFTISRDNAKNTVYLQMNSLKPEDTAVYYCARSSRGKLDYWGQGTQVTVSS	low polyreactivity
QVQLVESGGGLVQAGGSLRLSCAASGYTFVTYAMGWYRQAPGKERELVAAISYTGGSTYYADSVKGRFTISRDNAKNTVYLQMNSLKPEDTAVYYCATLRNHYRYDYWGQGTQVTVSS	low polyreactivity
QVQLVESGGGLVQAGGSLRLSCAASGYTFVYNAMGWYRQAPGKERELVAAITWGGAGTYYADSVKGRFTISRDNAKNTVYLQMNSLKPEDTAVYYCAAPSPRSSAYTYRGDYWGQGTQVTVSS	low polyreactivity
QVQLVESGGGLVQAGGSLRLSCAASGYTFYAMGWYRQAPGKERELVAAITYRGARTYYADSVKGRFTISRDNAKNTVYLQMNSLKPEDTAVYYCNADYWGQGTEVTVSS	low polyreactivity
QVQLVESGGGLVQAGGSLRLSCAASGYTFYENAMGWYRQAPGKERELVAAITSDGSTYYADSVKGRFTISRDNAKNTVYLQMNSLKPEDTAVYYCAVDEAPPELVYWFFTYYYGGQGTQVTVSS	low polyreactivity
QVQLVESGGGLVQAGGSLRLSCAASGYTFYVYAMGWYRQAPGKERELVAAIRSGGTTYYADSVKGRFTISRDNAKNTVYLQMNSLKPEDTAVYYCAAVSSDYPFEGNYWGQGTQVTVSS	low polyreactivity
QVQLVESGGGLVQAGGSLRLSCAASGYTFYVYTMGWYRQAPGKERELVAAISGSGTSTYYADSVKGRFTISRDNAKNTVYFQMNSLKPVDTAVYYCAAEDYSRDVYSYDYWGQGTQVTVSS	low polyreactivity
QVQLVESGGGLVQAGGSLRLSCAASGYTFYYAMGWYRQAPGKERELVAAISAGGGRTYYADSVKGRFTISRDNAKNTVYLQMNSLKPEDTAVYYCAGDYFYSQVAYVYWGQGTQLTVSS	high polyreactivity
QVQLVESGGGLVQAGGSLRLSCAASGYTIRYYAMGWYRQAPGKERDLVAAISSSGGNTYYADSVKGRFTISSDNAKNTVYLQMNSLKPEDTAVYYCAAAYHPYHRVTGHDGGYDYWGQGTQVTVSS	low polyreactivity
